Data on two molecules can be found in patent publication US20220403048A1, “BINDING MOLECULES TO ARGINASE II [ARG2]” (Cancer Research Technology Limited, priority 2019, published 2022).

The target in one series is T1, ARG2 (Homo sapiens, UniProt P78540).
T1 sequence (P78540 23-354): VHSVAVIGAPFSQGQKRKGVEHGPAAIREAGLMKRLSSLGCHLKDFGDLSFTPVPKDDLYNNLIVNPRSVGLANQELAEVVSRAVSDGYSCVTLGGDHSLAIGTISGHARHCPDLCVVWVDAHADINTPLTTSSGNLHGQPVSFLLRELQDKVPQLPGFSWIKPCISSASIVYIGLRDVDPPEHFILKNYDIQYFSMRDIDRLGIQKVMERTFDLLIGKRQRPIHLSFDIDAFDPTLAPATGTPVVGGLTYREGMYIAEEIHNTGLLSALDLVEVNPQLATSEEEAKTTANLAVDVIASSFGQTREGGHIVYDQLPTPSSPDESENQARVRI
The series is described as follows: Dynamic light scattering of ARG2-Fab complex sizes. Also noted: human ARG2 (aa23-354); His10 (C); made in house; host or cells: E. coli BL21 (DE3). Particulars: FIG. 23B. Here is the method:
ARG2 and Fabs were analysed at concentrations of 8 μM (referring to monomers) in buffer containing 25 mM tris at pH 7.4 and 150 mM NaCl (FIG. 23). ARG2-Fab complexes were formed by mixing both ARG2 and Fabs at concentrations of 8 μM (referring to monomers) and incubation on ice for 1 h. Dynamic light scattering (DLS) was performed on a Zetasizer Ultra (Malvern Panalytical) using multiangle DLS. Data was collected in a 3×3 mm cuvette (Hellma Analytics) using a sample volume of 30 μl. Volume weighted size-distributions were corrected for refractive index, viscosity, and background scatter of the buffer by the instrument software.

Series [1] has as its target T2, THP-1 lysate derived human trimeric ARG2 (Homo sapiens, UniProt P78540).
T2 construct: expressed in transfected cells; host or cells: THP-1 cells overexpressing human ARG2 (cell lysate)
T2 sequence (P78540 23-354): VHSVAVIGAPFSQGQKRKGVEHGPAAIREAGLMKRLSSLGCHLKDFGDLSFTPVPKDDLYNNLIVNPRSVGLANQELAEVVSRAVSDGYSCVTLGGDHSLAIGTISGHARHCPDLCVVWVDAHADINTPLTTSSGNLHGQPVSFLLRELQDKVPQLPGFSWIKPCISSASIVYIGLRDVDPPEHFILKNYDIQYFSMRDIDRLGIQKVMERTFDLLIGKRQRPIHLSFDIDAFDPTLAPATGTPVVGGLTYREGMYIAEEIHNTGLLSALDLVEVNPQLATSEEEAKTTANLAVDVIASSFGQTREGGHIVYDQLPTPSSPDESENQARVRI
The series is described as follows: ELISA binding to THP-1 lysate derived human ARG2. Particulars: biotinylated recombinant human IgG1, FIG. 6. Here is the method:
C0020187 and C0020065 IgGs were tested for their ability to bind to mammalian expressed human ARG2 produced in transfected THP-1 cells. Lysates of human ARG2 transfected THP-1 cells were prepared and binding to these lysates measured using an ELISA.
Cell lysates were prepared from THP-1 cells overexpressing human ARG2 and from wild type THP-1 cells. Between 600,000-1,000,000 cells were suspended in 1 ml tris-buffered saline (25 mM tris+150 mM sodium chloride in dH2O, pH 7.4) and cell lysates prepared using QIAshredders (QIAgen, UK; cat: 79654).
For the ELISA, maxisorp white plates (Nunc; cat: 437796) were coated overnight at 4° C. with rabbit anti-human ARG2 antibody (Abcam, ab137069) at 1 μg/ml in PBS. The next day, the plate was washed with PBS and blocked with casein blocker (Thermo Scientific, 37528). […]
The blocked ELISA plate was washed with PBS and 50 μl of the pre-incubation mixtures were transferred to the ELISA plate and incubated for 90 minutes at room temperature. […] Next, 100 μl PICO ELISA substrate (Thermo Scientific, 37070) was added to each well, the plate was incubated for 1 minute at room temperature in the dark before being read for luminescence using the Envision plate reader. Data were analysed using GraphPad Prism. […]
In general terms: In an ELISA, binding on a coated surface is turned into a signal by an enzyme label.

B1: C0021139: anti-ARG2 antibody, VH SEQ ID NO: 212, VL SEQ ID NO: 217 (antibody, listed as Homo sapiens, V domains shown)
VH: EVQLLESGGGLVQPGGSLRLSCAASGFTFQYDYQVWVRQAPGKGLEWVSAISGSGGSTYYADSVKGRFTISRDNSKNTLYLQMNSLRAEDTAVYYCARLRADLGLYMDLWGRGTLVTVSS
VL: QSVLTQPPSVSAAPGQKVTISCSGSSSNIGNHYVSWYQQLPGTAPKLLIYDNSERTSGIPDRFSGSKSGTSATLGITGLQTGDEADYYCGTWDELTSNLVFGGGTKLTVL
modifications: C0021139
In the case of B1, the “increase in average hydrodynamic radius (Rh) of ARG2-Fab complexes in comparison with ARG2-C0020187 Fab complexes” value in the series with ARG2 is 1.5 nm.

B2: C0020065: anti-ARG2 antibody, alternate lead isolation clone, VH SEQ ID NO: 2, VL SEQ ID NO: 7 (antibody, listed as Homo sapiens, V domains shown)
VH: GVNLRESGGGVVQPGRSLRLSCAASGFTFSSYAMHWVRQAPGKGLEWVAVISYDGSNKYYVDSVKGRFTISRDNSKNTLYLQMNSLRAEDTAVYYCARDSSQLWFDYWGRGTLVTVSS
VL: QSVVTQPPSVSGAPGQRVTISCTGSSSNIGTGYDVHWYQQLPGTAPKLLIYGNSNRPSGVPDRFSGSKSGTSASLAITGLQAEDEADYYCQSYDSSLSGSVVFGGGTQLTVL
modifications: C0020065
For the molecule B2, the “binding to THP-1 lysate derived human trimeric ARG2” value in series [1] is listed as “strong binding”.
